According to patent US20110229478A1, “ERBB3 BASED METHODS AND COMPOSITIONS FOR TREATING NEOPLASMS” (ZENSUN (SHANGHAI) SCIENCE & TECHNOLOGY LIMITED, priority 2002, published 2011):
Where “and” joins values, the source holds several entries; their conditions need not be identical. Equal entries are not always repeated.

Columns and labels:
[1] = system: transplanted tumour from spontaneous tumour of neu protein over-expressed FVB/N transgenic mice; experiment: Therapeutic effect of various dosage of DE3-1 in transplanted tumour model (Table 3); assay type: in vivo
Source text: (§1) Transplanted tumour model, after immunohistological screening test, about 1000 mm^3 tumour mass was cut down from spontaneous tumour of neu protein over-expressed FVB/N transgenic mice. The tumour mass was abraded into single cells with nylon net, the amount injected under the breast of each FVB/N transgenic mice was 5×10^6 cells.
(§2) Preparing animal and transplanted animal tumor model: The same as (Experiment on therapeutic effect of B3 and DE3-1 rhErbB3-f12 and rhErbB3-f78 vaccine on immune therapy against tumor). No treatment was given to the control group, histag protein was injected to the negative control group, and Adriamycin (Santou MingZhi Pharmaceuticals) was administered for the positive control group, 5 μg, 20 μg and 80 μg was given to DE3-1 group respectively.
One day after the inoculation, Adriamycin 2.2 mg/kg was injected abdominally for consecutive 7 days in mice of the positive control group; histag protein+Al(OH)^3 was injected abdominally for mice of the negative control group; In DE3-1 group, the vaccine was absorbed on 0.1 mg of Al(OH)^3 and multi-points subcutaneous injection every 2 weeks for a total of 3 injections were carried out in mice. The experiment completed in 14 days after the third injection. Tumor development was monitored weekly, tumor size was measured with vernier and the size was expressed as (length diameter×short diameter 2/2), curve of tumor growth was protracted and analyzed statistically.
(§3) Tumor weight was measured after completion of the experiment and tumor-inhibitory rate was calculated, tumor inhibitory rate=[(tumor weight of control group−tumor weight of experiment groups)/tumor weight of control group]×100.

[2] = system: transplanted tumour from spontaneous tumour of neu protein over-expressed FVB/N transgenic mice; experiment: Anti-tumor effect of rhErbB3-f78 (Table 5); assay type: in vivo
Source text: as §1
(§4) Experiment on the therapeutic effect of various dosage of DE3-1 rhErbB3412 and rhErbB3-f78 on immune therapy against tumor.
as §2, §3

[3] = system: transplanted tumour from spontaneous tumour of neu protein over-expressed FVB/N transgenic mice; experiment: Anti-tumor effect of rhErbB3-f12 (Table 4); assay type: in vivo
Source text: as §1, §4, §2, §3

[4] = system: transplanted tumour from spontaneous tumour of neu protein over-expressed FVB/N transgenic mice; experiment: Therapeutic effect of B3 vaccine in transplanted tumour model (Table 2); assay type: in vivo
Protocol: as §1
Nothing was administrated in the control group; 24 hours after the inoculation, SD32 and B3 vaccine injection started in SD32 and B3 experiment groups, the aforementioned vaccines were absorbed on 0.1 mg/ml of Al(OH)3 respectively, and injected multi-pointedly every 2 weeks for a total of three injections; the experiment was completed in 14 days after the third injection. Morbidity was monitored weekly, tumor size was measured weekly with vernier. Volume (length diameter×short diameter 2/2) of the tumor was used to represent their size, and curve of tumor growth was protracted,
Tumor weight was measured after completion of the experiment and tumor-inhibitory rate was calculated, inhibitory rate=[(tumor weight of control group−tumor weight of experiment groups)/tumor weight of control group]×100.

[5] = system: tumor development in FVB/N transgenic mice (neu protein over-expression, spontaneous breast cancer); experiment: Preventive effect of B3, DE3-1 on tumor development; assay type: in vivo; conditions: for Incidence of tumor growth / Time of tumor occurrence: injected abdominally every 20 days, 7 injections, 40 mice; for Tumor-inhibitory effect against the development of tumor, incidence versus negative control group: ×2 testing versus BSA + CFA control
Protocol: 8-10 weeks old FVB/N transgenic mice (bought from Jackson Lab USA) was selected as experiment animals, the mice were divided into 5 groups with 40 mice each, they were control group, B2, B3 and DE3-1 group; BSA, B2, SD32, B3, DE3-1 was mixed with Freud's adjuvant (CFA, complete Freud's adjuvant, bought from Sigma company) and injected abdominally every 20 days for 7 injections respectively to various groups. The dosage of BSA, B2, SD32, B3 and DE3-1 vaccine was 10, 5, 10, 1 and 10 μg/mouse/injection. Weekly monitor tumour development. The tumour development was verified and analysed statistically.
Objective of the present experiment is to explore whether there is preventive effect of B3 or DE3-1 vaccine on tumor development. The reason to choose this type of transgenic mice as experiment animal model, is because rat wild type neu cDNA controlled by mice breast virus promotor was transferred into the body of mice and produce over-expression of neu protein and spontaneous breast cancer occurred within 5-8 months in half of the mice. Natural course of tumor in the transgenic mice and its pathologic pattern is similar to that of human breast cancer. Therefore, it may have better therapeutic effect when used clinically. The sample contains 40 animals in each group, the aim of selecting such large sample is to ensure the number of cases which have the disorders will be greater than 10 animals, thus will be of greater implication statistically. The selection of dosage is based on the results of pre-experiments.

B2 and B3 antigen = experiment: Cross immunity of B2 and B3 antigen (ELISA antibody titer); conditions: serum of immunized FVB transgenic mice, ELISA on wrapped B2 or B3 protein, 450 nm
Protocol: FVB transgenic mice were immuned with B2 protein and B3 protein respectively, 10 days thereafter, blood was withdrawn and antibody titer was tested with ELISA. 0.3 μg/hole of B2 and B3 was wrapped, 1:1000 B2 and B3 on each plate were titrated with standard serum respectively, cultured at 37° C. for 30 minutes, sealed with 1% BSA, added double antibody, color development for 15 minutes with DAD, tested with Bio-Rad 450 nm enzyme labeled device.

[6] = ADR 2.2 mg/kg injected abdominally for consecutive 7 days
[7] = 5 μg + Al(OH)3, subcutaneous every 2 weeks, 3 injections
[8] = 20 μg + Al(OH)3, subcutaneous every 2 weeks, 3 injections
[9] = 80 μg + Al(OH)3, subcutaneous every 2 weeks, 3 injections

## COc1cccc2c1C(=O)c1c(O)c3c(c(O)c1C2=O)C[C@@](O)(C(=O)CO)C[C@@H]3O[C@H]1C[C@H](N)[C@H](O)[C@H](C)O1 [ADR, Adriamycin, reference compound]
[1]; [6]
  Inhibitory rate: 25.3%
  Tumor size: 4603.1 ± 478.3 mm3
  Tumor weight: 3.564 ± 0.42 g
[2]; 2 mg/kg, ip X 7 qd
  Inhibitory rate: 40.98%
  Tumor weight: 0.648 ± 0.27 g

## CC(=O)O[C@H]1C(=O)[C@@]2(C)[C@H]([C@H](OC(=O)c3ccccc3)[C@]3(O)C[C@H](OC(=O)[C@H](O)[C@@H](NC(=O)c4ccccc4)c4ccccc4)C(C)=C1C3(C)C)[C@]1(OC(C)=O)CO[C@@H]1C[C@@H]2O [Taxol, reference compound]
[3]; 10 mg/kg, ip X 7 qd
  Inhibitory rate: 44.32%
  Tumor weight: 3.09 ± 1.08 g

## B3: protein of ErbB3 extra-cell membrane region (SEQ ID NO:2), flag-tagged, expressed by eucaryotic cells; anti-tumor vaccine
[4]; t testing, P<0.01
  Tumor-inhibitory effect (significance): significant tumor-inhibitory effect
[4]; vaccine + Al(OH)3, every 2 weeks, three injections
  Inhibitory rate: 33%
[4]; vaccine + Al(OH)3, every 2 weeks, three injections, 5 weeks
  Tumor size: 5271.8 ± 658.9 mm3
[4]; vaccine + Al(OH)3, every 2 weeks, three injections, at completion of experiment
  Tumor weight: 3.13 ± 0.33 g
[5]; 5 μg/animal/dose + CFA
  Incidence of tumor growth: 12.5%
  Time of tumor occurrence: 22 weeks and 20 weeks
[5]
  Tumor-inhibitory effect against the development of tumor, incidence versus negative control group: significant tumor-inhibitory effect
B2 and B3 antigen
  Cross immunity between B2 and B3 antigen: there isn't any cross immunity

B1: rhErbB3-f12: protein segment of ErbB3 extra-cell membrane region (SEQ ID NO:14) expressed by E. coli (protein, listed as Homo sapiens)
chain: MKYLLPTAAAGLLLLAAQPAMAMDIKHNRPRRDCVAEGKVCDPLCSSGGCWGPGPGQCLSCRNYSRGGVCVTHCNFLNGEPLEHHHHHH
[3]; 0.25 mg/kg, sc X 3 q14d
  Inhibitory rate: 58.39%
  Tumor weight: 2.31 ± 0.40 g
[3]; 0.5 mg/kg, sc X 3 q14d
  Inhibitory rate: 52.61%
  Tumor weight: 2.62 ± 0.67 g
[3]; 1 mg/kg, sc X 3 q14d
  Inhibitory rate: 56.76%
  Tumor weight: 2.40 ± 0.49 g

B2: DE3-1: extra-cell membrane ErbB3 protein segment (SEQ ID NO:3) expressed by E. coli, N end fused with Trx Tag, His Tag and S-Tag (protein, listed as Homo sapiens)
chain: MRANDALQVLGLLFSLARGSEVGNSQAVCPGTLNGLSVTGDAENQYQTLYKLYERCEVVMGNLEIVLTGHNADLSFLQWIREVTGYVLVAMNEFSTLPLPNLRVVRGTQVYDGKFAIFVMLNYNTNSSHALRQLRLTQLTEILSGGVYIEKNDKLCHMDTIDWRDIVRDRDAEIVVKDNGRSCPPCHEVC
modifications: N-terminal Trx, His, S tags
[1]; [7]
  Inhibitory rate: 22.4%
  Tumor size: 5563.7 ± 600.6 mm3
  Tumor weight: 3.687 ± 0.45 g
[1]; [8]
  Tumor size: 4715.0 ± 434.8 mm3
  Tumor weight: 3.455 ± 0.41 g
[1]; [9]
  Inhibitory rate: 26.3%
  Tumor size: 4810.8 ± 460.5 mm3
  Tumor weight: 3.658 ± 0.37 g
[5]; 10 μg/animal/dose + CFA
  Incidence of tumor growth: 35%
  Time of tumor occurrence: 23 weeks
[5]
  Tumor-inhibitory effect against the development of tumor, incidence versus negative control group: not significantly different

B3: rhErbB3-f78: ErbB3 extra-cell membrane protein segment (SEQ ID NO:16) expressed by E. coli (protein, listed as Homo sapiens)
chain: MVCVASCPHNFVVDQTSCVRACPPDKMEVDKNGLKMCEPCGGLCPKACEGTGSGSRFQTVDSSNIDGFVNCTKILGNLDFLITGLNGDPWHKIPALDPEKLNVFRTVREITGYLNIQSWPPHMHNFSVFSNLTTIGGRSKLAAALEHHHHHH
[2]; 2.5 mg/kg, sc X 3 q14d
  Inhibitory rate: 60.38%
  Tumor weight: 0.435 ± 0.12 g
